{"source": "patent US20160279215A1", "about": "“NOVEL PEPTIDES AND COMBINATION OF PEPTIDES FOR USE IN IMMUNOTHERAPY AGAINST VARIOUS TUMORS” (immatics biotechnologies GmbH, priority 2015, published 2016)", "target": "T1, HLA-A*02:01 (human)", "T1 construct": "MHC monomers captured on streptavidin plates; the UV-sensitive peptide is cleaved and exchanged with the test peptide; also called peptide-receptive MHC molecules; MHC class I", "assay": "UV ligand-exchange ELISA (anti-b2m); +++ = exchange yield >=50", "text": "Candidate peptides for T cell based therapies according to the present invention were further tested for their MHC binding capacity (affinity). The individual peptide-MHC complexes were produced by UV-ligand exchange, where a UV-sensitive peptide is cleaved upon UV-irradiation, and exchanged with the peptide of interest as analyzed. Only peptide candidates that can effectively bind and stabilize the peptide-receptive MHC molecules prevent dissociation of the MHC complexes. To determine the yield of the exchange reaction, an ELISA was performed based on the detection of the light chain (β2m) of stabilized MHC complexes. The assay was performed as generally described in Rodenko et al. (Rodenko et al., 2006).\n96 well MAXISorp plates (NUNC) were coated over night with 2 ug/ml streptavidin in PBS at room temperature, washed 4× and blocked for 1 h at 37° C. in 2% BSA containing blocking buffer. Refolded HLA-A*02:01/MLA-001 monomers served as standards, covering the range of 15-500 ng/ml. Peptide-MHC monomers of the UV-exchange reaction were diluted 100 fold in blocking buffer. Samples were incubated for 1 h at 37° C., washed four times, incubated with 2 ug/ml HRP conjugated anti-β2m for 1 h at 37° C., washed again and detected with TMB solution that is stopped with […]. Absorption was measured at 450 nm. […]", "data": [{"binder": "SLTGANITV", "values": [{"measurement": "peptide exchange yield", "result": "50 to 75", "unit": "%"}]}]}
